Source: patent EP4588489A1, “LINKER FOR ANTIBODY-DRUG CONJUGATE AND USE THEREOF” (priority 2022, dated 2024)
Where a chain is given by its changes, count along the chain named. Read-outs that look alike come from different tables or passages of the source.

T1: TROP2 (UniProt P09758 27-323, limits assumed)
T1 sequence (looked up): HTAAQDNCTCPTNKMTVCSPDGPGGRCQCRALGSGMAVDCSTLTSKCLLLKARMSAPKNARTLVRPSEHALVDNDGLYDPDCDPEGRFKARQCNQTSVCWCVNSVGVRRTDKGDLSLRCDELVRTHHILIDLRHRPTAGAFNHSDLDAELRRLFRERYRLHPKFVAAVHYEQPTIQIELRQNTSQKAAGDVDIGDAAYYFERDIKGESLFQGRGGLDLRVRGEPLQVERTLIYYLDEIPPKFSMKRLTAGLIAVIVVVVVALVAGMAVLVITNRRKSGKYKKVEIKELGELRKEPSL

B1: ADC01 (Datopotamab conjugated to GGFG-Dxd) (antibody, human IgG1, kappa, V domains shown)
VH: QVQLVQSGAEVKKPGASVKVSCKASGYTFTTAGMQWVRQAPGQGLEWMGWINTHSGVPKYAEDFKGRVTISADTSTSTAYLQLSSLKSEDTAVYYCARSGFGSSYWYFDVWGQGTLVTVSS
VL: DIQMTQSPSSLSASVGDRVTITCKASQDVSTAVAWYQQKPGKAPKLLIYSASYRYTGVPSRFSGSGSGTDFTLTISSLQPEDFAVYYCQQHYITPLTFGQGTKLEIKR
modifications: linker-drug GGFG-Dxd on cysteines of reduced interchain disulfides; average DAR 3.73
B2: hRS7-C6-D4 (antibody, human IgG1, kappa, V domains shown)
VH: QVQLQQSGSELKKPGASVKVSCKASGYTFTNYGMNWVKQAPGQGLKWMGWINTYTGEPTYTDDFKGRFAFSLDTSVSTAYLQISSLKADDTAVYFCARGGFGSSYWYFDVWGQGSLVTVSS
VL: B1 VL with M4L, T20S, T31I, S60D, Q100A, L104V
modifications: linker-drug comp6 on cysteines of reduced interchain disulfides; DAR 3.49
B3: hRS7-CL2A-SN38-D8 (antibody, human IgG1, kappa, V domains shown)
VH: B2 VH
VL: B1 VL with M4L, T20S, T31I, S60D, Q100A, L104V
modifications: CL2A-SN38 on cysteines of reduced interchain disulfides; label D8
B4: ADC04 (hRS7 conjugated to CPD2) (antibody, human IgG1, kappa, V domains shown)
VH: B2 VH
VL: B1 VL with M4L, T20S, T31I, S60D, Q100A, L104V
modifications: linker-drug CPD2 on cysteines of reduced interchain disulfides; average DAR 3.92
B5: hRS7-C8-D4 (antibody, human IgG1, kappa, V domains shown)
VH: B2 VH
VL: B1 VL with M4L, T20S, T31I, S60D, Q100A, L104V
modifications: linker-drug comp8 on cysteines of reduced interchain disulfides; DAR 3.52
B6: hRS7-CPD3-NC-D4 (antibody, human IgG1, kappa, V domains shown)
VH: B2 VH
VL: B1 VL with M4L, T20S, T31I, S60D, Q100A, L104V
modifications: linker-drug CPD3 on cysteines of reduced interchain disulfides; label D4
B7: DXD (deruxtecan)-conjugated sacituzumab (hRS7-DXD) (antibody, human IgG1, kappa, V domains shown)
VH: B2 VH
VL: B1 VL with M4L, T20S, T31I, S60D, Q100A, L104V
modifications: deruxtecan (DXD) on cysteines of reduced interchain disulfides; label D4
B8: hRS7-CPT006-D4 (antibody, human IgG1, kappa, V domains shown)
VH: B2 VH
VL: B1 VL with M4L, T20S, T31I, S60D, Q100A, L104V
modifications: linker-drug CPT006 on cysteines of reduced interchain disulfides; label D4
B9: hRS7-CPT005-D4 (antibody, human IgG1, kappa, V domains shown)
VH: B2 VH
VL: B1 VL with M4L, T20S, T31I, S60D, Q100A, L104V
modifications: linker-drug CPT005 on cysteines of reduced interchain disulfides; label D4
B10: ADC02 (hRS7 conjugated to GGFG-Dxd) (antibody, human IgG1, kappa, V domains shown)
VH: B2 VH
VL: B1 VL with M4L, T20S, T31I, S60D, Q100A, L104V
modifications: linker-drug GGFG-Dxd on cysteines of reduced interchain disulfides; average DAR 3.69
B11: hRS7-CPD1-NC-D4 (antibody, human IgG1, kappa, V domains shown)
VH: B2 VH
VL: B1 VL with M4L, T20S, T31I, S60D, Q100A, L104V
modifications: linker-drug CPD1 on cysteines of reduced interchain disulfides; label D4
B12: hRS7-CPD6-NC-D4 (antibody, human IgG1, kappa, V domains shown)
VH: B2 VH
VL: B1 VL with M4L, T20S, T31I, S60D, Q100A, L104V
modifications: linker-drug CPD6 on cysteines of reduced interchain disulfides; label D4
B13: hRS7-CPT009-D4 (antibody, human IgG1, kappa, V domains shown)
VH: B2 VH
VL: B1 VL with M4L, T20S, T31I, S60D, Q100A, L104V
modifications: linker-drug CPT009 on cysteines of reduced interchain disulfides; label D4
B14: hRS7-CPD4-NC-D4 (antibody, human IgG1, kappa, V domains shown)
VH: B2 VH
VL: B1 VL with M4L, T20S, T31I, S60D, Q100A, L104V
modifications: linker-drug CPD4 on cysteines of reduced interchain disulfides; label D4

Columns and labels:
Experiment in all cases: cell-based or functional assay
TROP2 [1] = molecular target: T1, TROP2
TROP2 [2] = molecular target: T1, TROP2; remark: listed apart in the source
TROP2 [3] = molecular target: T1, TROP2; remark: listed apart in the source
TROP2 [4] = molecular target: T1, TROP2; remark: listed apart in the source

Row | Binder | EC50(nM), inhibition of BxPC-3 cell proliferation (TROP2 [3]) [nM] | Relative activity (%), inhibition of BxPC-3 cell proliferation (TROP2 [3]) [%] | EC50(nM), inhibition of BxPC-3 cell proliferation (TROP2 [4]) [nM] | Relative activity (%), inhibition of BxPC-3 cell proliferation (TROP2 [4]) [%] | other results
1 | B1 |  |  |  |  | A431 IC50/µg/mL (in vitro cell viability assay) (TROP2 [1]): 0.11 µg/mL
2 | B2 |  |  |  |  | EC50(nM), inhibition of BxPC-3 cell proliferation (TROP2 [2]): 0.393 nM; Relative activity (%), inhibition of BxPC-3 cell proliferation (TROP2 [2]): 80%
3 | B3 | 0.259 | 100 |  |  | 
4 | B4 |  |  |  |  | A431 IC50/µg/mL (in vitro cell viability assay) (TROP2 [1]): 0.048 µg/mL
5 | B5 |  |  |  |  | EC50(nM), inhibition of BxPC-3 cell proliferation (TROP2 [2]): 0.323 nM; Relative activity (%), inhibition of BxPC-3 cell proliferation (TROP2 [2]): 97%
6 | B6 |  |  | 0.309 | 156 | 
7 | B7 | 0.156 | 100 | 0.38 | 100 | Relative activity (%), inhibition of BxPC-3 cell proliferation (TROP2 [2]): 100%
8 | B8 | 0.259 | 60.4 |  |  | 
9 | B9 | 0.101 | 155 |  |  | 
10 | B10 |  |  |  |  | A431 IC50/µg/mL (in vitro cell viability assay) (TROP2 [1]): 0.057 µg/mL
11 | B11 |  |  | 0.468 | 103 | 
12 | B12 |  |  | 0.341 | 111 | 
13 | B13 | 0.353 | 50.7 |  |  | 
14 | B14 |  |  | 0.424 | 89.6 | 
